According to paper PMC12900691 (2025):

Columns and labels:
[1] = target: CHD4 ABM (Homo sapiens, UniProt Q14839); experiment: ITC
[2] = target: T1, histone H3K9me3 peptide H3K9me3 peptide (Homo sapiens, UniProt P68431, K9me3); experiment: ITC
T1 chain: ARTKQTARKSTGGKA

CHD4 ABM, sequence (Q14839 100-140): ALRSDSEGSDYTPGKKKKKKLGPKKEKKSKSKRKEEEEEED

Kd [1]: ~46 µM
Kd [2]: ~4 µM
B1: ATRX ADD (protein)
chain: NLKKRGEDGLHGIVSCTACGQQVNHFQKDSIYRHPSLQVLICKNCFKYYMSDDISRDSDGMDEQCRWCAEGGNLICCDFCHNAFCKKCILRNLGRKELSTIMDENNQWYCYICHPEPLLDLVTACNSVFENLEQLLQQNKKKIK
